Measured values taken from US7858577B2, “Use of the long pentraxin PTX3 for the treatment of diseases caused by an altered activation of the growth factor FGF-2” (Sigma-Tau Industrie Farmaceutiche Riunite S.p.A., priority 2000, dated 2010).

What was measured:
FGF-2 [1] = molecular target: T1, FGF-2 (Homo sapiens, UniProt P09038); assay: Capacity of biotinylated PTX3 to bind plastic immobilised FGF-2; assay type: binding; conditions: ELISA, streptavidin HRP, 405 nm
T1 construct: made in house
Description: 100 μl of NaHCO3 pH 9.6 containing 500 ng of FGF-2 or of the complement component C1q were incubated 18 h at 4° C. in 96 wells plastic plates. At the end of incubation wells were washed 3 times with PBS and subsequently incubated 2 h at room temperature with 200 μl of PBS containing 1 mg/ml of Bovine Serum Albumin (BSA). At the end of incubation wells were washed again 3 times with PBS and incubated with 30 ng/ml of ^125I-FGF-2 in presence of increasing amounts of biotinylated PTX3 in 100 μl of PBS (2 h at room temperature). Alternatively wells were adsorbed with increasing doses of FGF-2 or C1q and incubated with 100 ng/ml of biotinylated PTX3 in 100 μl of PBS. After this incubation wells were washed 3 times with PBS and incubated 1 h at room temperature with 100 μl of streptavidin HRP conjugate ( 1/2000). Reaction was developed by adding the chromogen microwell peroxidase substrate system ABTS (Kirkegaard & Perry Laboratories). Plates were read in an automatic ELISA reader at 405 nm.

[2] = molecular target: T2, interaction between 125I-FGF-2 and plastic immobilised PTX3 (Homo sapiens, UniProt P09038+P26022); assay: 125I-FGF-2 binding to plastic immobilised PTX3 in the presence of an excess of competitor; conditions: excess of competitor: FGF-2 or Cytocrome C 100 nM, soluble PTX3 300 nM
T2 construct: made in house
T2 sequence (P09038 134-288): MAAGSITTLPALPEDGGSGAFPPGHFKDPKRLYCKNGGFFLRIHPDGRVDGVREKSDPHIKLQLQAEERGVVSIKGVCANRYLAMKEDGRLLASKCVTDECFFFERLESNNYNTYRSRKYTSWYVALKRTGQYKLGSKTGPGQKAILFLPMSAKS
T2 sequence (P26022 18-381): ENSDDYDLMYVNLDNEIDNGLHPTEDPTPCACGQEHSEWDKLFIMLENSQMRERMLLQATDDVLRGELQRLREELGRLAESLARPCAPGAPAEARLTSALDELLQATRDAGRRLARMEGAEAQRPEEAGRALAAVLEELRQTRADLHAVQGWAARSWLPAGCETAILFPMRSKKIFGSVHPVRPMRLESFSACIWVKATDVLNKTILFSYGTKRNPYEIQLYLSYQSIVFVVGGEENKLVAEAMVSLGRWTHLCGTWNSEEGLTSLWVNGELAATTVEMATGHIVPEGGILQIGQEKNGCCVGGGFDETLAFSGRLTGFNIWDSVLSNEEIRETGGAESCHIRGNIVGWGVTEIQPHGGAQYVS
Description: (§1) 96 wells plates were coated at 4° C. with 100 μl of NaHCO3 pH 9.6 containing PTX3 or C reactive protein (200 nM) or alternatively 2 μg/ml of the following proteins used as negative control: bovine serum albumin, fibronectin, gelatine or laminin. After incubation, wells were washed 3 times with PBS and blocked 2 h at room temperature with 200 μl of 1 mg/ml of BSA in PBS. At the end of incubation wells were washed 3 times with PBS and subsequently incubated with 30 ng of ^125I-FGF-2 for 2 h at room temperature. Wells were subsequently washed 3 times with PBS and bound ^125I-FGF-2 was recovered by washing each well twice with 200 μl of 2% SDS in water. Levels of ^125I-FGF-2 were measured in a gamma counter.
In a second set of experiments the binding of ^125I-FGF-2 to plastic immobilised PTX3 has been tested in the presence of an excess of both native or heat denatured cold FGF-2 (100 nM), in the presence of similar Cytocrome C concentrations or in the presence of an excess of soluble PTX3 (300 nM).

MAE3F2T cells = assay: Effect on FGF-2 dependent autocrine proliferation of MAE3F2T cells; assay type: cell-based, murine; conditions: 72 h in 0.4% FCS; PTX3 70 nM, suramin 50 μg/ml, anti FGF-2 antibodies; cell counting
Description: In this experiment we have investigated the effect of PTX3 on the proliferation of the murine aortic endothelial cell line MAE3F2T stably transfected with an expression vector coding for FGF-2 (Gualandris et al. 1996, Cell Growth Diff. 7:147-60). These cells can proliferate in response to a autocrine loop of stimulation induced by endogenous FGF-2 (Gualandris et al. 1996, Cell Growth Diff. 7:14760). MAE3F2T cells were seeded at 10,000/cm^2 in 48-well plates in Dulbecco medium (DMEM) added with 10% FCS. After 24 h at 37° C., adherent cells were washed twice with DMEM without FCS and incubated for 72 at 37° C. in DMEM containing 0.4% FCS in the presence or not of PTX3 (70 nM), anti FGF-2 specific antibodies or suramin (50 μg/ml). Suramin is known for its capacity to sequestrate extracellular FGF-2 and inhibits its biological activities (Rusnati et al., 1996, Mol. Biol. Cell. 7:369-381). At the end of incubation cells were trypsinized and counted in a Burker chamber.

FGF-2 [3] = molecular target: T1, FGF-2; assay: 125I-FGF-2 binding to plastic immobilised proteins; conditions: wells coated with 200 nM PTX3 or CRP or 2 μg/ml control proteins, 30 ng 125I-FGF-2, 2 h room temperature
Description: as §1

T1 sequence (P09038 134-288): as the sequence (P09038 134-288) above

biotinylated PTX3: PTX3 labelled with biotin for the ELISA binding test
binding of biotinylated PTX3 to plastic immobilised FGF-2 (FGF-2 [1]): FGF-2 immobilised on plastic wells is able to bind biotinylated PTX3

cold FGF-2: human recombinant growth factor FGF-2, unlabelled, used as competitor
inhibition of the interaction between 125I-FGF-2 and plastic immobilised PTX3 [2]: inhibited the interaction

Cc1ccc(C(=O)Nc2ccc(S(=O)(=O)O)c3cc(S(=O)(=O)O)cc(S(=O)(=O)O)c23)cc1NC(=O)c1cccc(NC(=O)Nc2cccc(C(=O)Nc3cc(C(=O)Nc4ccc(S(=O)(=O)O)c5cc(S(=O)(=O)O)cc(S(=O)(=O)O)c45)ccc3C)c2)c1 [suramin, reference compound]
inhibition of FGF-2 dependent proliferation of MAE3F2T cells (MAE3F2T cells): in a manner similar to that exerted by anti FGF-2 antibodies and suramin

heat-inactivated FGF-2: heat denatured unlabelled FGF-2 used as competitor
inhibition of the interaction between 125I-FGF-2 and plastic immobilised PTX3 [2]: not able to bind PTX3

CRP: short pentraxin homologous to PTX3, used as comparison protein
binding of 125I-FGF-2 to plastic immobilised protein (FGF-2 [3]): reacts poorly
binding of 125I-FGF-2 to plastic immobilised protein (FGF-2 [3]; listed as C-reactive protein): does not bind FGF-2
